Drawing on patent publication US6964763, this text covers % inhibition for 1 molecule.

The experiment concerns the target Recombinant baculovirus-expressed HIV-1 gp120 derived from the LAV isolate (HIV-1 isolate LAV (LAI)), P03377. Kind of experiment: competition: 125I-CD4 on immobilized gp120, 10-fold molar excess of peptide; isolate (MN or LAI) not stated.

The % inhibition is the drop in the measured response relative to a control, in per cent. CSVTCG (modifications not checked) [CSVTCG peptide derived from TSP1 properdin-like Type 1 repeat]: the % inhibition stood at 53%.
